Results reported in patent publication US20170119790A1, “Agents, Uses and Methods” (CYTOGUIDE A/S, priority 2009, published 2017).
“And” between values parts separate entries of the source, which are not always exact repeats. Identical values can stand only once.

What was measured:
[1] = target: T1, CD163 on peripheral blood monocytes (Homo sapiens, UniProt Q86VB7); assay: Quantitative flow cytometry of monocyte surface CD163 expression using different anti-CD163 mAb clones; format: cell-based
T1 construct: Freshly drawn peripheral whole blood samples or PBMC; endogenous in cells; host or cells: human peripheral blood monocytes, blood dendritic cells, monocyte-derived macrophages (healthy donors, buffy coats)
Description: EDTA, citrate, and heparin stabilized peripheral blood samples were obtained by standard venipuncture from healthy donors in Venoject® vacutainers (Terumo Europe NV, Leuven, Belgium). Peripheral blood mononuclear cells (PBMC) were isolated from leukocyte-rich buffy coats by gradient separation centrifugation using Accuspin System Histopaque®—1077 (Sigma-Aldrich Denmark A/S, Broendby, Denmark). Buffy coats were prepared from units of whole blood (approximately 472 ml) anti-coagulated with CPD-A (Baxter, Munich, Germany) donated by healthy volunteers. Approval for the study was obtained from the regional ethical committee (j.nr. 20040068).
Freshly drawn peripheral whole blood samples or PBMC (approx. 3×10^6 cells) were stained with isotype-matched control antibody or a relevant antibody for one hour at 4° C. in the dark. When staining whole blood, erythrocytes were lysed for 15 min with 4° C. cold solution of ammonium chloride. When indirect immunofluoresence staining was required, cells were initially incubated with unconjugated primary CD163 antibody for one hour at 4° C., washed three times with D-PBS, pH 7.4, followed by incubation with goat anti-mouse-conjugated Alexa-Fluor® 488 (1:200 dilution; Molecular Probes, Invitrogen, Carlsbad, Calif., USA) for one hour at 4° C. in the dark. The stained cells were washed twice three D-PBS, pH 7.4, re-suspended in 400 μl FACSflow (Becton Dickinson, San Jose, Calif., USA), and kept on ice until analysis. All samples were analyzed using a FACSCalibur flow cytometer and compensated for spectral overlap using FlowJo for Macintosh software version 8.3 (TreeStar, San Carlos, Calif.). For CD163 density quantitation, flow cytometric estimation of antibodies bound/cell (ABCs) was performed using Quantibrite PE beads (Becton Dickinson, San Jose, Calif., USA) as recommended by the manufacturer. After the cells were stained, as detailed, a set of 4 pre-calibrated fluorescently labeled beads was used for standardization before the samples were acquired. The Quantibrite PE beads were run at the same instrument settings as the assay, and the linear regression obtained using the Quantibrite PE beads was used to convert the FL2 linear fluorescence staining of cell population into the number of (CD163) PE molecules bound per cell (ABC).

[2] = target: T2, mouse CD163 1-5 LKIHDK-->VKVQEE, Y60R mutant (Mus musculus, UniProt Q2VLH6, D69E/H68Q/I67V/K70E/L65V/Y111R); assay: Western blotting of mouse CD163 and knock in mutant; format: binding
T2 construct: A mutant (LKIHDK-->VKVQEE, Y60R) in domain 1 of mouse CD163 1-5; host or cells: Lenti-X 293T, transient; captured from supernatant on Ni-NTA
T2 sequence (Q2VLH6 39-577 L65V/I67V/H68Q/D69E/K70E/Y111R): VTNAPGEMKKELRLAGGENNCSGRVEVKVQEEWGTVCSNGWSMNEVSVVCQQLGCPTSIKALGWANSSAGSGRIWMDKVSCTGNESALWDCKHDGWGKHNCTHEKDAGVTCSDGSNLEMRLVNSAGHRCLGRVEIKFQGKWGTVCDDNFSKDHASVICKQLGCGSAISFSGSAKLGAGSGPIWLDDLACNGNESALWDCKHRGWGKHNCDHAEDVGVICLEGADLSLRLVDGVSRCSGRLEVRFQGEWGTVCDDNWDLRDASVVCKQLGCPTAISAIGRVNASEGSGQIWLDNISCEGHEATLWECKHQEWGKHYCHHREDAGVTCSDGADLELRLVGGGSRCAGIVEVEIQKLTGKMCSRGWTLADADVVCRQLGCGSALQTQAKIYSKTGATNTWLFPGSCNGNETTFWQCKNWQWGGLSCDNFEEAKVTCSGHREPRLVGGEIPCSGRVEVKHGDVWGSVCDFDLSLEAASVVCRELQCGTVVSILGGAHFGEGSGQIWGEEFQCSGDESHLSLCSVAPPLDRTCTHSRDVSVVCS
Description: CD163 domain 1-5 was used for expression of mouse CD163 domain 1-5/V5/His. A mutant (LKIHDK-->VKVQEE, Y60R) in domain 1 of mouse CD163 1-5 was ordered as midiprep at GenScript (Piscataway, N.J., USA). Sequences DNA and protein of mutants are show below (mutant only domain 1).
The mouse CD163 1-5 and the mouse CD163 domain 1 mutant were expressed transient in Lenti-X 293T cells as follows: 1.5 μg of the DNA was diluted in OptiCHOPro SFM (8 mM L-glutamine) to a total volume of 50 μl The DNA was gently mixed with 50 μl of OptiCHOPro SFM containing 1.5 μl Freestyle MAX transfection reagent (Invitrogen, Taastrup, Denmark). After 10 min of incubation at room temperature the complexes were added to 1×10^6 cells in 1 ml. Three days later, the cell supernatants were harvested by centrifugation.
Tris pH 8 buffer, and cell culture supernatants were added 60 μl of Ni-NTA His-bind resin slurry. After 1 hour shaking at 4° C. the supernatants were aspired and each of the purifications were eluted with 90 μl 50 mM Tris pH 8, 25 mM EDTA buffer.
90 μl of each of the eluates were added 30 μl of 4×LDS sample buffer. 20 μl samples of each supernatant and 8 μl SeeBlue plus2 prestained marker were loaded on NuPage 4-12% Bis-Tris-Gels (Invitrogen, Taastrup, Denmark) and the SDS-PAGEs were run with MOPS running buffer according to instructions of the manufacturer (200 V constant for 50 min). […]

[3] = PBMC isolated by density gradient centrifugation
[4] = Table 2, second column pair, head prints CITRATE
[5] = anticoagulant CITRATE, whole blood (Table 1, FIG. 2-3)
[6] = anticoagulant EDTA, whole blood (Table 1, FIG. 2-3)
[7] = anticoagulant HEPARIN, whole blood (Table 1, FIG. 2-3)
[8] = freshly drawn EDTA stabilized whole blood, FIG. 1

T1 sequence (Q86VB7 42-1156): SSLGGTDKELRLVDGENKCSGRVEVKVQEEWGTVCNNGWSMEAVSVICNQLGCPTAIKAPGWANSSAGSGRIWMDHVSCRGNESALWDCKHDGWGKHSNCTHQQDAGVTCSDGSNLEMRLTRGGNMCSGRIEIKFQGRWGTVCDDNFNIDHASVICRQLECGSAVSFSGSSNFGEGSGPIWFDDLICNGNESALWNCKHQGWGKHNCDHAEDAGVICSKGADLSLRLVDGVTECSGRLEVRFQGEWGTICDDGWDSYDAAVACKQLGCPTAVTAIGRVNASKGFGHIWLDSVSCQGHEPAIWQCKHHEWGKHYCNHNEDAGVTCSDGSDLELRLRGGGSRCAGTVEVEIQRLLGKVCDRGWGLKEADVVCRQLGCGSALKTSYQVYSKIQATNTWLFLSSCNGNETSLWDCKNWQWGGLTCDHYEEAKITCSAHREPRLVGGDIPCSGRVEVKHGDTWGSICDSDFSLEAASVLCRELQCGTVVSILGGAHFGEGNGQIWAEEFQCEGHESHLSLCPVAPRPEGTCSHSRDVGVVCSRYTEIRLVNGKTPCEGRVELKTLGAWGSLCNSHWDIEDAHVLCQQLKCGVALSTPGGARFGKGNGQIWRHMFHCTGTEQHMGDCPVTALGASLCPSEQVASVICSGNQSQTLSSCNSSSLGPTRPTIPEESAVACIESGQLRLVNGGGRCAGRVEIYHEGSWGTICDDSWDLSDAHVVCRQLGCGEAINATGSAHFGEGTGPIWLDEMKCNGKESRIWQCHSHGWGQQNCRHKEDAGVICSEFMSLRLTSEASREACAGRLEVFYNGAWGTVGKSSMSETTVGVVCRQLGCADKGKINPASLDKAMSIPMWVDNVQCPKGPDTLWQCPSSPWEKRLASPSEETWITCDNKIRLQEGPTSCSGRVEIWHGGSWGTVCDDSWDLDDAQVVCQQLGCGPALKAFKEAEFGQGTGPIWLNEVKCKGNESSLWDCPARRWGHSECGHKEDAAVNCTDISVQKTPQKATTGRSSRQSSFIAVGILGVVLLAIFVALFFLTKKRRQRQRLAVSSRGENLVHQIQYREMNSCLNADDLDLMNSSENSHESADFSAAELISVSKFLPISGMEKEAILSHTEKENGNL

B1: MAC2-158: anti-human CD163 murine mAb, binds SRCR domain 1, IQ Products; VH SEQ ID NO: 1, VL SEQ ID NO: 2 (antibody, V domains shown)
VH: DVQLQESGPGLVKPSQSLSLTCTVTGYSITSDYAWNWIRQFPGNKLEWMGYITYSGITNYNPSLKSQISITRDTSKNQFFLQLNSVTTEDTATYYCVSGTYYFDYWGQGTTLTVSS
VL: SVVMTQTPKSLLISIGDRVTITCKASQSVSSDVAWFQQKPGQSPKPLIYYASNRYTGVPDRFTGSGYGTDFTFTISSVQAEDLAVYFCGQDYTSPRTFGGGTKLEIKRA
modifications: Mac2-158 VH; Mac2-158 VL
With B1 the “density of CD163 receptors per monocyte” value [1, 3] was 11,417, the “fraction of CD14+ monocytes stained for CD163” value [1, 3] was 81.10% and the “% CD163+ monocytes” value ([1]; Table 2, first column pair, head prints EDTA) was 84.48%. For the same molecule, the “% CD163+ monocytes” value [1, 4] was 87.23%, the CD163 density on monocytes [1, 4] was 17700 receptors/monocyte and the “% CD163+ monocytes” value ([1]; Table 2, third column pair, head prints HEPARIN) was 83.97%. The “% CD163+ monocytes” value [1, 5] was 83.97% and 81.97%, the “CD163 density on monocytes” value [1, 5] was 17.726 and the “% CD163+ monocytes” value [1, 6] was 87.23% and 82.23%. The “CD163 density on monocytes” value [1, 6] was 17.725, the “% CD163+ monocytes” value [1, 7] was 84.43% and the CD163 density monocytes [1, 7] was 28.029. For the same molecule, the “density of CD163 receptors per monocyte” value [1, 8] was 17,725, the “fraction of peripheral blood monocytes (CD14+) recognized” value [1, 8] was 84.06% and the “proportion of circulating CD163 expressing monocytes identified” value ([1]; summary statement) was greater than 80%. For the same molecule, the “binding in western blot” value [2] was “did bind”.
